The values below come from publication PMC4557121 (2015).

First the molecules themselves.
B1: A2 [not stated] / purified TRB3 protein [not stated] (parent complex)
chain 1: GGWLTRLLQTK
chain 2: MRATPLAAPAGSLSRKKRLELDDNLDTERPVQKRARSGPQPRLPPCLLPLSPPTAPDRATAVATASRLGPYVLLEPEEGGRAYQALHCPTGTEYTCKVYPVQEALAVLEPYARLPPHKHVARPTEVLAGTQLLYAFFTRTHGDMHSLVRSRHRIPEPEAAVLFRQMATALAHCHQHGLVLRDLKLCRFVFADRERKKLVLENLEDSCVLTGPDDSLWDKHACPAYVGPEILSSRASYSGKAADVWSLGVALFTMLAGHYPFQDSEPVLLFGKIRRGAYALPAGLSAPARCLVRCLLRREPAERLTATGILLHPWLRQDPMPLAPTRSHLWEAAQVVPDGLGLDEAREEEGDREVVLYG

The variants in the assay derive from B1. Kind of assay: SPR; TRB3 immobilized on CM5 sensor chips.
The Kd is the concentration at which binding is half-saturated. On to chain 1 GGWLTRLLATK [chain 1 Q9A], for which the Kd worked out at 35600 nM.

Turning to chain 1 GGALTRLLQTK [chain 1 W3A], the Kd was 3590 nM.

Turning to chain 1 GGWLTRLLQTA [chain 1 K11A], the Kd turned out to be 73.1 nM.

Take chain 1 GGWLTALLQTK [chain 1 R6A]: the dissociation constant Kd amounted to 0.142 nM.

chain 1 GGWLTRALQTK [chain 1 L7A]: the Kd came to 11800 nM.

As to chain 1 GGWATRLLQTK [chain 1 L4A], the Kd amounted to 4320 nM.

For chain 1 GAWLTRLLQTK [chain 1 G2A], the Kd turned out to be 402 nM.

Consider chain 1 GGWLARLLQTK [chain 1 T5A], for which the equilibrium dissociation constant (Kd) was found to be 110 nM.

As for chain 1 GGWLTRLLQAK [chain 1 T10A], the equilibrium dissociation constant (Kd) stood at 381 nM.

For the variant chain 1 AGWLTRLLQTK [chain 1 G1A], the dissociation constant (Kd) was 1640 nM.
